Laboratory results taken from the DeepSol protein solubility set.

Test: soluble on expression in E. coli; label from the status in PepcDB or PDB records

Sequence	soluble on expression in E. coli
MKTSPRRPLILKRRRLPLPVQNAPSETSEEEPKRSPAQQESNQAEASKEVAESNSCKFPAGIKIINHPTMPNTQVVAIPNNANIHSIITALTAKGKESGSSGPNKFILISCGGAPTQPPGLRPQTQTSYDAKRTEVTLETLGPKPAARDVNLPRPPGALCEQKRETCADGEAAGCTINNSLSNIQWLRKMSSDGLGSRSIKQEMEEKENCHLEQRQVKVEEPSRPSASWQNSVSERPPYSYMAMIQFAINSTERKRMTLKDIYTWIEDHFPYFKHIAKPGWKNSIRHNLSLHDMFVRETSANGKVSFWTIHPSANRYLTLDQVFKQQKRPNPELRRNMTIKTELPLGARRKMKPLLPRVSSYLVPIQFPVNQSLVLQPSVKVPLPLAASLMSSELARHSKRVRIAPKVLLAEEGIAPLSSAGPGKEEKLLFGEGFSPLLPVQTIKEEEIQPGEEMPHLARPIKVESPPLEEWPSPAPSFKEESSHSWEDSSQSPTPRPKKSYSGLRSPTRCVSEMLVIQHRERRERSRSRRKQHLLPPCVDEPELLFSEGPSTSRWAAELPFPADSSDPASQLSYSQEVGGPFKTPIKETLPISSTPSKSVLPRTPESWRLTPPAKVGGLDFSPVQTPQGASDPLPDPLGLMDLSTTPLQSAPPLESPQRLLSSEPLDLISVPFGNSSPSDIDVPKPGSPEPQVSGLAANRSLTEGLVLDTMNDSLSKILLDISFPGLDEDPLGPDNINWSQFIPELQ	soluble
AIADELNSPLGERAQGASLAHVVWSDPQWLERYPLTFENVLTYFSRSPFYDPTCNNELVRMQMHPELQGEMLYYTQREEELLLGMQGVEYVPLCSSDAHELFIIRKQVRRSADEVHVTNLYYILYGQVYEAPAFSTVLLVRLRQSADFLVRSLGLLRQWLSKKEYGEPGATGHGHEDTLLLQLLRKAQQRNRQL	soluble
ALTSNASGTFDGYYYELWKDTGNTTMTVYTQGRFSCQWSNINNALFRTGKKYNQNWQSLGTIRITYSATYNPNGNSYLCIYGWSTNPLVEFYIVESWGNWRPPGATSLGQVTIDGGTYDIYRTTRVNQPSIVGTATFDQYWSVRTSKRTSGTVTVTDHFRAWANRGLNLGTIDQITLCVEGYQSSGSANITQNTFSQSS	soluble
MAHHHHHHMRPLLVFGLRGTLLERIHASRVPSGMPGGAITVGMSRVWLRPSAMETLLALQQHCTLAVWSSTTARNTTPLMEAVFSQHAQKVNFAFVWSREHTTADEFRRVSATSRDDQHATVKDLREVYRRFPEIATPQNTVLIDDTPSKGKLNASNFLWLETCEELKIENPNVMPALRRFVEEHLLAEREDVRRLLPARVPWGQQ	not soluble
MGSDKIHHHHHHMQLPGGVQLTYCTNLHAASSLDEVRANLDRYAVPLKARLSPNAPFGIGLRLSGQESAELLEGQALAAFKAFLDERGLYVFTLNGFPYGPFHGQPVKTQVHAPDWRDAERVAYTQRLAEILAFLLPEGGEGGISTSPLSYRGWVEADSRSAWIQMTGNLVRVVETLIRLRQRWGRFIHLDLEPEPDGLLQCSDDLARFFREHLLGGGARDLAARLGIDVEQARAYLRDHVQVCFDTCHVAVMYEDPAQALQTYEQVGLRIGKVQISSALRLPLPPDPEARLDGARALVPFVEDTYLHQVIGRSRDGKIVQYPDLPPALAHVRDPQVTEWRIHFHIPVFLERAGLFASTQPEIVKTLALLREKGFTRHLEIETYTWDVLPEALKLPLLCSIEREYRWVMDVL	not soluble
QSQGGGSVTKKRKLESSESRSSFSQHARTSGRVAVEEVDEEGKFVRLRNKSNEDQSMGNWQIRRQNGDDPLMTYRFPPKFTLKAGQVVTIWASGAGATHSPPTDLVWKAQNTWGCGSSLRTALINSTGEEVAMRKLVR	soluble
MSLSSLDAVLSQDLIVADGPAVEVGDSLEVAYTGWLFQNHVLGQVFDSTANKDKLLRLKLGSGKVIKGWEDGMLGMKKGGKRLLIVPPACAVGSEGVIGWTQATDSILVFEVEVRRVKFAREGHHHHHH	not soluble
AAIGSCSKEYRVLLGQLQKQTDLMQDTSRLLDPYIRIQGLDVPKLREHCRERPGAFPSEETLRGLGRRGFLQTLNATLGCVLHRLADLEQRLPKAQDLERSGLNIEDLEKLQMARPNILGLRNNIYCMAQLLDNSDTAEPTKAGRGASQPPTPTPASDAFQRKLEGCRFLHGYHRFMHSVGRVFSKW	soluble
YTPPGRLGDESSGPRTDPRFSPAMVEALATFGLDAVAAAPPVSASDDLPTVLAAVGASHDGFQAVYDSIALDLPTDRDDVETSTETILGVDGNEITLHVFRPAGVEGVLPGLVYTHGGGMTILTTDNRVHRRWCTDLAAAGSVVVMVDFRNAWTAEGHHPFPSGVEDCLAAVLWVDEHRESLGLSGVVVQGESGGGNLAIATTLLAKRRGRLDAIDGVYASIPYISGGYAWDHERRLTELPSLVENDGYFIENGGMALLVRAYDPTGEHAEDPIAWPYFASEDELRGLPPFVVAVNELDPLRDEGIAFARRLARAGVDVAARVNIGLVHGADVIFRHWLPAALESTVRDVAGFAADRARLR	soluble
RTAAELMGRCSSKGLGISDIMFINERASRSEEEIREGLLHIWSVMEACVETSLKREGVLPGGLKVRRRSPDWLERLLKEDKDRNDPKYWQEWVNLIALAVNEENASGGRVVTAPTNGAAGIIPAVLYYALNYAPGMDKASQADKDDVVVKFLLAAGAVGVLYKEQASISGAEVGCQGEVGSASSMAAAGLAEVMGGSPGQVENAAEIAMEHNLGLTCDPIGGLVQIPCIERNAIAAAKAINAAKMALWGDGTHRVSLDEVIVTMRETGKDMSSKYKETAMGGLAVN	not soluble
GAVETLQGKAATGELLEKSVNTIRFLAIDAVEKANSGHPGLPMGCAPMGHVLYDEVMRYNPKNPYWFNRDRFVLSAGHGCMLQYALLHLAGYDSVKEEDLKQFRQWGSRTPGHPENFETPGVEVTTGPLGQGIANAVGLALAEKHLAARFNKPDSEIVDHYTYVILGDGCQMEGIANEACSLAGHWGLGKLIAFYDDNHISIDGDTEIAFTEDVSTRFEALGWHTIWVKNGNTGYDDIRAAIKEAKAVTDKPTLIKVTTTIGFGSPNKANSYSVHGSALGAKEVEATRQNLGWPYDTFFVPEDVKSHWSRHTPEGAALEADWNAKFAEYEKKYADDAATLKSIITGELPTGWVDALPKYTPESPGDATRNLSQQCLNALANVVPGLIGGSADLASSNMTLLKMFGDFQKDTAEERNVRFGVREHGMGAICNGIALHSPGFVPYCATFFVFTDYMRGAMRISALSEAGVIYVMTHDSIGLGEDGPTHQPIEHLVSFRAMPNILMLRPADGNETAGAYKVAVLNRKRPSILALSRQKLPHLPGTSIEGVEKGGYTISDNSTGNKPDLIVMGTGSELEIAAKAADELRKEGKTVRVVSFVSWELFDEQSDEYKESVLPAAVTARISIEAGSTLGWQKYVGAQGKAIGIDKFGASAPAGTIYKEYGITVESIIAAAKSF	soluble
MEFEFIKNTLLGEYAVRCNMEHQIVGRWLQEEIGQDLAKLKHVLTLIDKAEQSPAQEFLWTGREISLLVQGDEITVQENALAYESEHELETDFALYDSESIAACGREDFVALLTQWQSFIQNQGRF	not soluble
MSRFAPATPLLLSLLLTSCSPAQGVRVERITGGGMLYTVATVDPARDQLTLHWLNPATGKPYSSFAQLGSRLGKQGKKLLFATNSGIYMPGPKPLGLHVEGGKTLVGLNNAGKGGGNFALLPNGVFWLRGKKAGVTETQAYRKLGLAPDYATQSGPLLVANGKLHPDFNKSGTSFKVRSGVGVCGGGKVRFAISAGPVNFYSFATFFRDTLGCPDALYLDGSISAYATPDTDTQFTEFAGIWAVTARLEHHHHHH	soluble
MGHHHHHHGGHMSLIAITGATGQLGHYVIESLMKTVPASQIVAIVRNPAKAQALAAQGITVRQADYGDEAALTSALQGVEKLLLISSSEVGQRAPQHRNVINAAKAAGVKFIAYTSLLHADTSPLGLADEHIETEKMLADSGIVYTLLRNGWYSENYLASAPAALEHGVFIGAAGDGKIASATRADYAAAAARVISEAGHEGKVYELAGDSAWTLTQLAAELTKQSGKQVTYQNLSEADFAAALKSVGLPDGLADMLADSDVGASKGGLFDDSKTLSKLIGHPTTTLAESVSHLFNVNNEGGS	soluble
MKVISLKKDSFNKGGAVITLLPEDKEDLFTVYQIVDKDDELIFKKKFTSKLDEAGKKKSTDLVKLKIKVISEDFDMKDEYLKYKGVTVTDESGASNVDIPVGKYLSFTLDYVYPFTIIKQNFNKFMQKLLNEACNIEYKSDTAAVVLQEGIAHVCLVTSSSTILKQKIEYSMPKKKRTTDVLKFDEKTEKFYKAIYSAMKKDLNFDKLKTIILCSPGFYAKILMDKIFQYAEEEHNKKILDNKGMFFIAHCSTGYLQGINEVLKNPLYASKLQDTKYSKEIMVMDEFLLHLNKDDDKAWYGEKEVVKAAEYGAISYLLLTDKVLHSDNIAQREEYLKLMDSVESNGGKALVLSTLHSLGEELDQLTGIACILKYPLPDLDEDDGEE	soluble
MASVTEQFNDIISLYSTKLEHTSLRQDSPEYQGLLLSTIKKLLNLKTAIFDRLALFSTNETIDDVSTASIKFLAVDYYLGLLISRRQSNDSDVAQRQSMKLIYLKKSVESFINFLTLLQDYKLLDPLVGEKLGNFKDRYNPQLSELYAQPKNNKDLSGAQLKRKEKIELFQRNKEISTKLHCLELELKNNDEDHDHDELLRELYLMRLHHFSLDTINNIEQNLFECEMLSNFLK	soluble
MGSDKIHHHHHHMDGKVMAGTRIEKVMANIRQRITSRSLVPGARLPSVRALAKTMQLSTSTIVEAYDRLVADGTISSRPGSGFFVAGPLAPLSLADIEPRLDRAVDPLWVSRQALDDGSALAKPGCGWLPASWMPQEALRRAMRGLARADDALLTDYGSPMGLLPLRQLLSRRLAEHGVQAGASQIMLTDSGTQAIDLLCRFLLQPGDTVVVDDPCYFNFHALLRAHRVKIVGVPYTPAGPDLPLFEQALKEHQPRLYITNSAIHNPTGARLSAVSAHRLLMLAEQPGLTIIEDDIFADFETQAAPRLAAFDGLNRVVQIGSFSKTLSASVRCGFIAAPRAWVEALTDLKIATAFGGTHFSAALVLSLLTDGSYRKHVEALRQRLAAAVPEAATRLRSIGCMPWIEPQAGMFLWCRLPEGTDAADVAQRALARQVVLAPGNVFSSSQNASGFMRFNVSQMVGPQVMTVLADALR	not soluble
MLLNLDVRMQLKELAQKEFKEPVSIKLFSQAIGCESCQTAEELLKETVEVIGEAVGQDKIKLDIYSPFTHKEETEKYGVDRVPTIVIEGDKDYGIRYIGLPAGLEFTTLINGIFHVSQRKPQLSEKTLELLQVVDIPIEIWVFVTTSCGYCPSAAVMAWDFALANDYITSKVIDASENQDLAEQFQVVGVPKIVINKGVAEFVGAQPENAFLGYIMAVYEKLKREKEQA	soluble
MPTNCAAAGCATTYNKHINISFHRFPLDPKRRKEWVRLVRRKNFVPGKHTFLCSKHFEASCFDLTGQTRRLKMDAVPTIFDFCTHI	soluble
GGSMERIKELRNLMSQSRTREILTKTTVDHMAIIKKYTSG	soluble
MSEGWNIAILGATGAVGEALLETLAERQFPVGEIYALARHESAGEHLRFGGKSVIVQDAADFDWTQAQLAFFVAGAEASAAWIDDATNAGCLVIDSSGLFALEPDVPLVVPEVNPYVLADYRNRNVIAVADSLTSQLLAALKPLIDQGGLSRIAVTSMLSASAQGKKAVDALAGQSAKLLNGIPIDEDDFFGRQLAFNMLPLLPDREGSVRQERRIVDEVRKILQDDGVMISASVVQSPVFYGHAQMVSFEALRPLAAEEAREAFSRGEDIVLSEETDYPTQVGDASGNPQLSIGCVHNDYGMPEQIQFWSVADNVRFGGALMAVKIAEKLVQEYLY	not soluble
MKYRVETNPFSKDRYNPEQLEMFKNRQLSKDKAEVFFTRLYNQHIAWVIIANVMTEYVIKFRKSATSFEEAWDALDYQRTTEIVFRAVNGLPCSEKDSGELETYLSEEQHEKH	not soluble
